According to US20260201048A1 (NANJING BIOHENG BIOTECH, published 2026):
Values belong to the binder of their own block, whether it stands above or below them.

Legend:
[1] = biological target: T1, Human IRP60 protein (Kactus) (human, UniProt Q9UGN4 18-178, limits assumed); assay: flow cytometry; CAR19-60 T cells stained with soluble human IRP60 protein
T1 construct: Commercial soluble protein used as the flow cytometry staining reagent; also called CD300a
T1 sequence (looked up): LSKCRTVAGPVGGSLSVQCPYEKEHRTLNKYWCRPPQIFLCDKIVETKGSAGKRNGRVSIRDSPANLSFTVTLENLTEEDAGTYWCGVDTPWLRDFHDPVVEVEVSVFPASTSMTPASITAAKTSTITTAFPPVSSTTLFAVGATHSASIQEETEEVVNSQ
From the text: Using a flow cytometry, the expression of anti-CD 19 scFv in CAR-T cells was detected with FITC goat anti-human Fab (Thermo Fisher), and the expression of anti-IRP60 scFv was detected with Human IRP60 protein (Kactus). It can be seen that all the CARs in the CAR-T cells prepared in this example can be effectively expressed (FIG. 12), and the immunosuppressive molecule in CAR19-60 T cells can also be effectively expressed (FIG. 13).

[2] = biological target: T2, Human SIRPa protein (Acro) (human, UniProt P78324 31-370, limits assumed); assay: flow cytometry; CAR19-α T cells stained with soluble human SIRPa protein
T2 construct: Commercial soluble protein used as the flow cytometry staining reagent; also called SIRPα; signal regulatory protein a
From the text: Using a flow cytometry, the expression of anti-CD19 scFv in CAR-T cells was detected with FITC goat anti-human Fab (Thermo Fisher), and the expression of anti-SIRPa scFv was detected with Human SIRPa protein (Acro). It can be seen that all the CARs in the CAR-T cells prepared in this example can be effectively expressed (FIG. 7), and the immunosuppressive molecule in CAR19-α T cells can also be effectively expressed (FIG. 8).

T2 sequence (P78324 31-370 limits assumed): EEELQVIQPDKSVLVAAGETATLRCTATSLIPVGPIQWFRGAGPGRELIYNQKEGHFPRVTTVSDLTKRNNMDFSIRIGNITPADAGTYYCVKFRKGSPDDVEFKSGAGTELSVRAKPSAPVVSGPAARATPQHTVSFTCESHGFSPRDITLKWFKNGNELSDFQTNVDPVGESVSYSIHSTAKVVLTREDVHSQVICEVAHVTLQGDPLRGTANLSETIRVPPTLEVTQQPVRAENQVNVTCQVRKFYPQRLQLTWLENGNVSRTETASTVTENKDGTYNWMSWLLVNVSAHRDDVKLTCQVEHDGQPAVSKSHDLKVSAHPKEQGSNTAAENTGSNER

binding result [1]: binds
B1: immunosuppressive molecule targeting IRP60 (anti-IRP60 scFv, IgG4 hinge region, CD28 transmembrane region, CD28 co-stimulatory domain), expressed on CAR19-60 T … (scFv)
chain: EVQLQQSGAELVKPGASVKLSCKASGYTFTSYWMQWVKQRPGQGLEWIGEIDPSDSYTNYNQKFKGKATLTVDTSSSTTYMQLSSLTSEDSAVYYCARWGMAYGTSSYWYFDVWGTGTTVTVSSAGGGSGGGSGGGSDIQMTQTTSSLSASLGDRVTISCRASQDISNYLNWYQQKPDGTVKLLIYYTSRLHSGVPSRFSGSGSGTDYSLTISNLEQEDIATYFCQQGNTLPWTFGGGTKLEIKESKYGPPCPPCPFWVLVVVGGVLACYSLLVTVAFIIFWVRSKRSRLLHSDYMNMTPRRPGPTRKHYQPYAPPRDFAAYRS
notes: Membrane-anchored scFv on B2M-knockout T cells that also express a CD19 CAR; also called anti-IRP60 antibody

binding result [2]: binds
B2: immunosuppressive molecule targeting SIRPa (anti-SIRPa scFv, IgG4 hinge region, CD28 transmembrane region, CD28 co-stimulatory domain), expressed on CAR19-α T … (scFv)
chain: EVQLVESGGGLVQPGGSLRLSCAASGFNISYYFIHWVRQAPGKGLEWVASVYSSFGYTYYADSVKGRFTISADTSKNTAYLQMNSLRAEDTAVYYCARFTFPGLFTGFFGAYLGSLDYWGQGTLVTVSSGGGSGGGSGGGSDIQMTQSPSSLSASVGDRVTITCRASQSVSSAVAWYQQKPGKAPKLLIYSASSLYSGVPSRFSGSRSGTDFTLTISSLQPEDFATYYCQQAVNWVGALVTFGQGTKVEIKRESKYGPPCPPCPFWVLVVVGGVLACYSLLVTVAFIIFWVRSKRSRLLHSDYMNMTPRRPGPTRKHYQPYAPPRDFAAYRS
notes: Membrane-anchored scFv on B2M-knockout T cells that also express a CD19 CAR; also called anti-SIRPa antibody
